Data as given in patent US20200249231.

Assays:
[1] = molecular target: T1, APRYRQRAA (9-mer on peptide array)
T1 chain: APRYRQRAA

[2] = molecular target: T2, AYRQR (5-mer on peptide array)
T2 chain: AYRQR

[3] = molecular target: T3, DWVAQ (5-mer on peptide array)
T3 chain: DWVAQ

[4] = molecular target: T4, DWYLQ (5-mer on peptide array)
T4 chain: DWYLQ

[5] = molecular target: T5, DYALQ (5-mer on peptide array)
T5 chain: DYALQ

[6] = molecular target: T6, DYWLQ (5-mer on peptide array)
T6 chain: DYWLQ

[7] = molecular target: T7, EWIAQ (5-mer on peptide array)
T7 chain: EWIAQ

[8] = molecular target: T8, EYALQ (5-mer on peptide array)
T8 chain: EYALQ

[9] = molecular target: T9, EYFLQ (5-mer on peptide array)
T9 chain: EYFLQ

[10] = molecular target: T10, EYWLQ (5-mer on peptide array)
T10 chain: EYWLQ

[11] = molecular target: T11, FRQRG (5-mer on peptide array)
T11 chain: FRQRG

[12] = molecular target: T12, FYESK (5-mer on peptide array)
T12 chain: FYESK

[13] = molecular target: T13, LRYRQ (5-mer on peptide array)
T13 chain: LRYRQ

[14] = molecular target: T14, NYRFK (5-mer on peptide array)
T14 chain: NYRFK

[15] = molecular target: T15, PYKYK (5-mer on peptide array)
T15 chain: PYKYK

[16] = molecular target: T16, QRQRQ (5-mer on peptide array)
T16 chain: QRQRQ

[17] = molecular target: T17, QYRQR (5-mer on peptide array)
T17 chain: QYRQR

[18] = molecular target: T18, RFSQR (5-mer on peptide array)
T18 chain: RFSQR

[19] = molecular target: T19, RFYSK (5-mer on peptide array)
T19 chain: RFYSK

[20] = molecular target: T20, RQRQR (5-mer on peptide array)
T20 chain: RQRQR

[21] = molecular target: T21, RWKFK (5-mer on peptide array)
T21 chain: RWKFK

[22] = molecular target: T22, RYESK (5-mer on peptide array)
T22 chain: RYESK

[23] = molecular target: T23, RYRSK (5-mer on peptide array)
T23 chain: RYRSK

[24] = molecular target: T24, RYTQR (5-mer on peptide array)
T24 chain: RYTQR

[25] = molecular target: T25, Thermus thermophilus SlyD FKBP domain with S. mobaraensis MTG Q-tag DYALQ instead of RYRQR
T25 chain: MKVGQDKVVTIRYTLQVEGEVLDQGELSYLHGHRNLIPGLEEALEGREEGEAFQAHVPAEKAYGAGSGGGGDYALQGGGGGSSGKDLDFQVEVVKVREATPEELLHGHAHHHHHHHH

[26] = molecular target: T26, Thermus thermophilus SlyD FKBP domain with grafted KalbTG Q-tag RYRQR, 8xHis
T26 chain: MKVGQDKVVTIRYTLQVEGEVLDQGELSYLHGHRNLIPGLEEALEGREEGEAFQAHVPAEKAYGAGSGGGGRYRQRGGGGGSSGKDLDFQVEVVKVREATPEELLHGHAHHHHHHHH

[27] = molecular target: T27, VRQRQ (5-mer on peptide array)
T27 chain: VRQRQ

[28] = molecular target: T28, VRYRQ (5-mer on peptide array)
T28 chain: VRYRQ

[29] = molecular target: T29, YKGRG (5-mer on peptide array)
T29 chain: YKGRG

[30] = molecular target: T30, YKSFK (5-mer on peptide array)
T30 chain: YKSFK

[31] = molecular target: T31, YKSWK (5-mer on peptide array)
T31 chain: YKSWK

[32] = molecular target: T32, YKYAK (5-mer on peptide array)
T32 chain: YKYAK

[33] = molecular target: T33, YKYKY (5-mer on peptide array)
T33 chain: YKYKY

[34] = molecular target: T34, YKYNK (5-mer on peptide array)
T34 chain: YKYNK

[35] = molecular target: T35, YKYRQ (5-mer on peptide array)
T35 chain: YKYRQ

[36] = molecular target: T36, YQKWK (5-mer on peptide array)
T36 chain: YQKWK

[37] = molecular target: T37, YRQRA (5-mer on peptide array)
T37 chain: YRQRA

[38] = molecular target: T38, YRQTR (5-mer on peptide array)
T38 chain: YRQTR

[39] = molecular target: T39, YRYAK (5-mer on peptide array)
T39 chain: YRYAK

[40] = molecular target: T40, YRYRQ (5-mer on peptide array)
T40 chain: YRYRQ

[41] = molecular target: T41, Z-[GGGDYALQGGGG]
T41 chain: GGGDYALQGGGG

[42] = molecular target: T42, Z-[GGGQYRQRGGGG]
T42 chain: GGGQYRQRGGGG

[43] = molecular target: T43, Z-[GGGRQRQRGGGG]
T43 chain: GGGRQRQRGGGG

[44] = molecular target: T44, Z-[GGGRYGKSGGGG]
T44 chain: GGGRYGKSGGGG

[45] = molecular target: T45, Z-[GGGRYRQRGGGG]
T45 chain: GGGRYRQRGGGG

[46] = molecular target: T46, Z-[GGGRYRSKGGGG]
T46 chain: GGGRYRSKGGGG

[47] = molecular target: T47, Z-[GGGRYSQRGGGG]
T47 chain: GGGRYSQRGGGG

[48] = molecular target: T48, Z-[GGGYRYRQGGGG]
T48 chain: GGGYRYRQGGGG

B1: Kutzneria albida microbial transglutaminase, activated enzyme (KalbTGt3) (protein)
chain: APLAPPLAEDRSYRTWRVEDYVEAWERYHGREMTEDERENLARGCIGVTVVNLNREDLSNPPLNLSFGSLRTAEAVQAALNKIVDTHPSPAQYEAAVAKDPILKRLKNVVKALPSWIDSAKLKASIFSKRFYSWQNPDWSEERAHTTYRPDRETDQVDMSTYRYRARPGYVNFDYGWFDQDTNTWWHANHEEPRMVVYQSTLRHYSRPLQDFDEQVFTVAFAKKDGGGSGHHHHHHHH
[1]
  peptide array, second round of maturation: A second round of maturation on the peptide array yielded APRYRQRAA (SEQ ID NO:24) as the top performing 9-mer substrate
[2]
  5-mer peptide array, incorporation of biotinylated amine donor: the top 22 glutamine-donor substrates identified on the 5-mer peptide array with KalbTG
[3]
  5-mer peptide array signal with KalbTG: exhibited relatively lower signal on the KalbTG array
[4]
  5-mer peptide array signal with KalbTG: exhibited relatively lower signal on the KalbTG array
[5]
  5-mer peptide array signal with KalbTG: exhibited relatively lower signal on the KalbTG array
  Array signal (log2): 7.22 log2
[6]
  5-mer peptide array signal with KalbTG: exhibited relatively lower signal on the KalbTG array
[7]
  5-mer peptide array signal with KalbTG: exhibited relatively lower signal on the KalbTG array
[8]
  5-mer peptide array signal with KalbTG: exhibited relatively lower signal on the KalbTG array
[9]
  5-mer peptide array signal with KalbTG: exhibited relatively lower signal on the KalbTG array
[10]
  5-mer peptide array signal with KalbTG: exhibited relatively lower signal on the KalbTG array
[11]
  5-mer peptide array, incorporation of biotinylated amine donor: the top 22 glutamine-donor substrates identified on the 5-mer peptide array with KalbTG
  Array signal (log2): 8.82 log2
[12]
  5-mer peptide array, incorporation of biotinylated glutamine donor Z-APRYRQRAAGGG-PEG-biotin: the top 17 lysine-donor substrates identified on the 5-mer peptide array with KalbTG
[13]
  5-mer peptide array, incorporation of biotinylated amine donor: the top 22 glutamine-donor substrates identified on the 5-mer peptide array with KalbTG
[14]
  5-mer peptide array, incorporation of biotinylated glutamine donor Z-APRYRQRAAGGG-PEG-biotin: the top 17 lysine-donor substrates identified on the 5-mer peptide array with KalbTG
[15]
  5-mer peptide array, incorporation of biotinylated glutamine donor Z-APRYRQRAAGGG-PEG-biotin: the top 17 lysine-donor substrates identified on the 5-mer peptide array with KalbTG
[16]
  5-mer peptide array, incorporation of biotinylated amine donor: the top 22 glutamine-donor substrates identified on the 5-mer peptide array with KalbTG
  Array signal (log2): 8.77 log2
[17]
  5-mer peptide array, incorporation of biotinylated amine donor: the top 22 glutamine-donor substrates identified on the 5-mer peptide array with KalbTG
  Array signal (log2): 8.7 log2
[18]
  5-mer peptide array, incorporation of biotinylated amine donor: the top 22 glutamine-donor substrates identified on the 5-mer peptide array with KalbTG
[19]
  5-mer peptide array, incorporation of biotinylated glutamine donor Z-APRYRQRAAGGG-PEG-biotin: the top 17 lysine-donor substrates identified on the 5-mer peptide array with KalbTG
[20]
  5-mer peptide array, incorporation of biotinylated amine donor: the top 22 glutamine-donor substrates identified on the 5-mer peptide array with KalbTG
  Array signal (log2): 8.84 log2
[21]
  5-mer peptide array, incorporation of biotinylated glutamine donor Z-APRYRQRAAGGG-PEG-biotin: the top 17 lysine-donor substrates identified on the 5-mer peptide array with KalbTG
[22]
  5-mer peptide array, incorporation of biotinylated glutamine donor Z-APRYRQRAAGGG-PEG-biotin: the top 17 lysine-donor substrates identified on the 5-mer peptide array with KalbTG
  Array signal (log2): 12.7 log2
[23]
  Array signal (log2): 12.4 log2
[24]
  5-mer peptide array, incorporation of biotinylated amine donor: the top 22 glutamine-donor substrates identified on the 5-mer peptide array with KalbTG
[25]
  labeling with KalbTG K-tag-Cy3 (SDS-PAGE, in-gel fluorescence): showed no incorporation of label when incubated with KalbTG
[26]
  labeling yield with KalbTG K-tag-Cy3 (SDS-PAGE, in-gel fluorescence): approximately 70% yield of a labeled protein species after 15 minutes
[27]
  5-mer peptide array, incorporation of biotinylated amine donor: the top 22 glutamine-donor substrates identified on the 5-mer peptide array with KalbTG
[28]
  5-mer peptide array, incorporation of biotinylated amine donor: the top 22 glutamine-donor substrates identified on the 5-mer peptide array with KalbTG
[29]
  Array signal (log2): 12.2 log2
[30]
  5-mer peptide array, incorporation of biotinylated glutamine donor Z-APRYRQRAAGGG-PEG-biotin: the top 17 lysine-donor substrates identified on the 5-mer peptide array with KalbTG
[31]
  5-mer peptide array, incorporation of biotinylated glutamine donor Z-APRYRQRAAGGG-PEG-biotin: the top 17 lysine-donor substrates identified on the 5-mer peptide array with KalbTG
[32]
  5-mer peptide array, incorporation of biotinylated glutamine donor Z-APRYRQRAAGGG-PEG-biotin: the top 17 lysine-donor substrates identified on the 5-mer peptide array with KalbTG
[33]
  5-mer peptide array, incorporation of biotinylated glutamine donor Z-APRYRQRAAGGG-PEG-biotin: the top 17 lysine-donor substrates identified on the 5-mer peptide array with KalbTG
[34]
  5-mer peptide array, incorporation of biotinylated glutamine donor Z-APRYRQRAAGGG-PEG-biotin: the top 17 lysine-donor substrates identified on the 5-mer peptide array with KalbTG
[35]
  5-mer peptide array, incorporation of biotinylated amine donor: the top 22 glutamine-donor substrates identified on the 5-mer peptide array with KalbTG
  Array signal (log2): 8.7 log2
[36]
  5-mer peptide array, incorporation of biotinylated glutamine donor Z-APRYRQRAAGGG-PEG-biotin: the top 17 lysine-donor substrates identified on the 5-mer peptide array with KalbTG
[37]
  5-mer peptide array, incorporation of biotinylated amine donor: the top 22 glutamine-donor substrates identified on the 5-mer peptide array with KalbTG
[38]
  5-mer peptide array, incorporation of biotinylated amine donor: the top 22 glutamine-donor substrates identified on the 5-mer peptide array with KalbTG
[39]
  5-mer peptide array, incorporation of biotinylated glutamine donor Z-APRYRQRAAGGG-PEG-biotin: the top 17 lysine-donor substrates identified on the 5-mer peptide array with KalbTG
[40]
  5-mer peptide array, incorporation of biotinylated amine donor: the top 22 glutamine-donor substrates identified on the 5-mer peptide array with KalbTG
  Array signal (log2): 8.99 log2
[41]
  GLDH-coupled activity assay: KalbTG exhibited no activity with preferred S. mobaraensis MTG substrates DYALQ (SEQ ID NO: 22) and MLAQG (SEQ ID NO: 13)
  Reaction rate in solution (pmol/s), GLDH-coupled assay: -0.05 pmol/s
[42]
  Reaction rate in solution (pmol/s), GLDH-coupled assay: 1.92 pmol/s
[43]
  Reaction rate in solution (pmol/s), GLDH-coupled assay: 2.06 pmol/s
[44]
  Reaction Rate in Solution (pmol s^-1), GLDH-coupled assay with 200 µM glutamine donor: 2.66 pmol/s
[45]
  Reaction rate in solution (pmol/s), GLDH-coupled assay: 3.6 pmol/s
[46]
  Reaction Rate in Solution (pmol s^-1), GLDH-coupled assay with 200 µM glutamine donor: 3.26 pmol/s
[47]
  Reaction rate in solution (pmol/s), GLDH-coupled assay: 3.22 pmol/s
[48]
  KM: 2150 µM
  Reaction rate in solution (pmol/s), GLDH-coupled assay: 3.52 pmol/s
  Vmax: 73.2 pmol/s
  kcat: 1.92 s⁻¹
  kcat/KM: 890 M⁻¹ s⁻¹
